Data on 24 substances can be found in paper PMC4866497.

Series [1] concerns the target MetMab full heavy chain with wild-type CH3, with MetMab light chain [IgG part: P01857]. The series is described as follows: SEC.
Series [2] has the same target. As to the kind of experiment: SEC. The source holds these as a separate data set.
Series [3] concerns MetMab full heavy chain with E356G E357D S364Q Y407A, with MetMab light chain. As to the kind of experiment: SEC.
The test system of series [4] is MetMab full heavy chain with E357D S364R Y407A, with MetMab light chain. As to the kind of experiment: SEC.
Series [5] concerns MetMab full heavy chain with E356G E357D S364Q Y407A, with MetMab light chain. The series is described as follows: SEC. The source holds these as a separate data set.
For series [6], the system named is MetMab full heavy chain with E357D S364R Y407A, with MetMab light chain. The series is described as follows: SEC. This is another data set of the same source.
Series [7] relates to MetMab full heavy chain with Y349S K370Y T366M K409V, with MetMab light chain. As to the kind of experiment: SEC.
Series [8] has the same test system. As to the kind of experiment: SEC. This is another data set of the same source.
In series [9] the target is MetMab full heavy chain with K409D K392D, with MetMab light chain. As to the kind of experiment: SEC.
Series [10] addresses MetMab full heavy chain with T366W, with MetMab light chain. As to the kind of experiment: SEC.
Series [11] deals with MetMab full heavy chain with D399K E356K, with MetMab light chain. The series is described as follows: SEC.
The test system is the same in series [12]. As to the kind of experiment: SEC. The source holds these as a separate data set.
Series [13] concerns the target MetMab full heavy chain with T350V L351Y F405A Y407V, with MetMab light chain. The series is described as follows: SEC.
Series [14] has as its system MetMab full heavy chain with Y349S K370Y T366V K409V, with MetMab light chain. The series is described as follows: SEC.
Series [15] shares this test system. The series is described as follows: SEC. This is another data set of the same source.
Series [16] concerns the target VEGFR1 domain 3 - Fc, wild-type CH3. As to the kind of experiment: FRET or BRET.
In series [17] the test system is MetMab full heavy chain with wild-type CH3, with MetMab light chain [IgG part: P01857]. As to the kind of experiment: SEC. This is another data set of the same source.
Series [18] concerns EGFR domain 3 - Fc with K409D K392D. The series is described as follows: FRET or BRET.
In series [19] the target is IgG1 Fc, wild-type CH3. As to the kind of experiment: SEC.
The subject of series [20] is MetMab full heavy chain with T366W, with MetMab light chain. The series is described as follows: SEC. This is another data set of the same source.
Series [21] has as its system EGFR domain 3 - Fc with Y349S K370Y T366M K409V. The series is described as follows: FRET or BRET.
For series [22], the target named is MetMab full heavy chain with T350V T366L K392L T394W, with MetMab light chain. The series is described as follows: SEC.
Series [23] deals with EGFR domain 3 - Fc, wild-type CH3. As to the kind of experiment: FRET or BRET.
Series [24] concerns EGFR domain 3 - Fc with Y349S K370Y T366V K409V. As to the kind of experiment: FRET or BRET.
The test system of series [25] is MetMab full heavy chain with E357D S364Q Y407A, with MetMab light chain. The series is described as follows: SEC.
For series [26] the test system is unchanged. As to the kind of experiment: SEC. The source holds these as a separate data set.
The test system of series [27] is EGFR domain 3 - Fc with T366W. As to the kind of experiment: FRET or BRET.
The subject of series [28] is MetMab full heavy chain with K409D K392D, with MetMab light chain. The series is described as follows: SEC. The source holds these as a separate data set.
Series [29] concerns the target MetMab full heavy chain with T366V K409V, with MetMab light chain. The series is described as follows: SEC.
Series [30] shares this target. The series is described as follows: SEC. The source holds these as a separate data set.

Where two headings read alike, the source gives them in different places.

As for “MetMab full heavy chain with wild-type CH3, with MetMab light chain (from UniProt P01857 1-399) (complex)”, the % AA homodimer (co-expressed with m17) in series [1] is 31.3%; in series [2], 65%.

Consider IgG1 Fc with Y349S K370Y T366M K409V, for which the % AB heterodimer in series [3] was determined as 31.8%; in [4], 29.9%; in [5], 94.2%; in series [6], 85.5%. On to IgG1 Fc with E356G E357D S364Q Y407A, for which the % AB heterodimer in series [7] was 23.6%; in [8] it was 83.8%. Take “MetMab full heavy chain with K409D K392D, with MetMab light chain (complex)”: the % AA homodimer (co-expressed with m19) in [9] is 19.9%. “MetMab full heavy chain with T366W, with MetMab light chain (complex)” yielded a % AA homodimer (co-expressed with m21) in series [10] of 15.7%.

Take IgG1 Fc with K409D K392D: the % AB heterodimer in series [11] was found to be 29.4%; in series [12] it was 93.6%. As to “MetMab full heavy chain with T350V L351Y F405A Y407V, with MetMab light chain (complex)”, the % AA homodimer (co-expressed with m22) in [13] was 9%. As to IgG1 Fc with E357D S364Q Y407A, the % AB heterodimer in series [14] amounted to 11.7%; in series [15], 84.9%.

In turn, “MetMab full heavy chain with D399K E356K, with MetMab light chain (complex)” had a % AA homodimer (co-expressed with m18) in series [11] of 11.3%. The substance “VEGFR1 domain 3 - Fc, wild-type CH3 (Fc fusion)” yielded a % BB homodimer (co-expressed with m35) in [16] of 14.6%.

Regarding IgG1 Fc, wild-type CH3, the % AB heterodimer in series [2] was 27.4%; in series [17] it was 51.3%.

In the case of VEGFR1 domain 3 - Fc with D399K E356K, the % AB heterodimer in series [18] was 96.2%. The substance “IgG1 Fc, wild-type CH3 (domain or fragment)” had a % BB homodimer (co-expressed with m1) in series [19] of 15.9%.

As to IgG1 Fc with T366S L358V Y407A, the % AB heterodimer in series [10] came to 35%; in [20], 92.4%.

In turn, “VEGFR1 domain 3 - Fc with E356G E357D S364Q Y407A” registered a % AB heterodimer in series [21] of 93.9%. In the case of “MetMab full heavy chain with T350V T366L K392L T394W, with MetMab light chain (complex)”, the % AA homodimer (co-expressed with m23) in [22] was found to be 5.1%. As to IgG1 Fc with E357D S364R Y407A, the results for the % AB heterodimer in series [7] and in [8] were 34.7% and 83.5%, respectively. For the substance “EGFR domain 3 - Fc, wild-type CH3 (Fc fusion)”, the % AA homodimer (co-expressed with m42) in series [23] was 24.2%. Turning to “VEGFR1 domain 3 - Fc with E357D S364Q Y407A”, the % AB heterodimer in series [24] amounted to 93.3%.

For the substance IgG1 Fc with Y349S K370Y T366V K409V, the % AB heterodimer was determined as 4.7% in series [25] and 92.5% in series [26].

Regarding “VEGFR1 domain 3 - Fc with T366S L358V Y407A”, the % AB heterodimer in series [27] is 96.2%.

Regarding IgG1 Fc with D399K E356K, the % AB heterodimer stood at 37.5% in [9] and 91.7% in [28]. As to “MetMab full heavy chain with T366V K409V, with MetMab light chain (complex)”, in series [29], the % AA homodimer (co-expressed with m24) amounted to 4.1% and the % AA long dimer (co-expressed with m24) was 3.8%. In series [30], this substance displayed a % AA homodimer (co-expressed with m24) of 28.6% and a % AA long dimer (co-expressed with m24) of 24.1%.

VEGFR1 domain 3 - Fc, wild-type CH3 displayed a % AB heterodimer in [23] of 61.2%.
